Reference: patent US20250262210A1 (TRUSTEES OF COLUMBIA UNIVERSITY IN THE CITY OF NEW YORK, published 2025)

What was measured:
Assay in all cases: IP/MS, LZTR1 R810W-FLAG, U87
[1] = molecular target: T1, LAMB3 (human, UniProt Q13751 18-1172)
T1 sequence (looked up): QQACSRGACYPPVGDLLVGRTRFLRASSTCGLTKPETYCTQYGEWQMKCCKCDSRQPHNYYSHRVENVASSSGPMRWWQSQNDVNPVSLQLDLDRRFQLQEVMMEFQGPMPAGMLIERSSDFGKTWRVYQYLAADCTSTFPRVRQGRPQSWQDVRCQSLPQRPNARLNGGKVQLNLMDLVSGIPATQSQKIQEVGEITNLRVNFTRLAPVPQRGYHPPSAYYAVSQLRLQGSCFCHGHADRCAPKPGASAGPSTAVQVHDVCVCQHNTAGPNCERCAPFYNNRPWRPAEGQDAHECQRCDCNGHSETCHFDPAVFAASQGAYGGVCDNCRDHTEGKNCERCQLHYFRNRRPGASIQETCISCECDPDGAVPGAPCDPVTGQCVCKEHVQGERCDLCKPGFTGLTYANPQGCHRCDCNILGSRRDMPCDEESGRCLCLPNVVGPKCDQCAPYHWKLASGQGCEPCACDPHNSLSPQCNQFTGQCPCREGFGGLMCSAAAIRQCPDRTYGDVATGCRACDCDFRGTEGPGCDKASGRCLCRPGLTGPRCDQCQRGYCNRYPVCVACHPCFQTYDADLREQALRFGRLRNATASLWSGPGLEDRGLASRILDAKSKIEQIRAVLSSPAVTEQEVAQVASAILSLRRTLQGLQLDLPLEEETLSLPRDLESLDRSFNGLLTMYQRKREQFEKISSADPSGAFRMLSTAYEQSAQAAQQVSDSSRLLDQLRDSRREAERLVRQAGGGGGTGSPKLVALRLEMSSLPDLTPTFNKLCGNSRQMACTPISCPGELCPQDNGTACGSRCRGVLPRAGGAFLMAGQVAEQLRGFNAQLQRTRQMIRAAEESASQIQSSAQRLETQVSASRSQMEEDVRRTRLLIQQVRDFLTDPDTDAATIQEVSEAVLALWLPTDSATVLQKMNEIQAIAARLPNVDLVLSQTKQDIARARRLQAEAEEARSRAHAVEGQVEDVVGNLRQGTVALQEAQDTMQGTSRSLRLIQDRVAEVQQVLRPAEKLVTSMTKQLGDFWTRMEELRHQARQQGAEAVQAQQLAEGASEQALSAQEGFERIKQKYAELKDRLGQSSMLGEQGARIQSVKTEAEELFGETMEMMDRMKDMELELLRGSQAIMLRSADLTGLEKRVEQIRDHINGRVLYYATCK
Procedure, shortened: (§1)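 Gel slices were reduced with 5 mM DTT, alkylated with 11 mM IAA and digested overnight at 37° C. with trypsin. Peptides were analysed on an Orbitrap Fusion Tribrid by LC-MS/MS.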

[2] = molecular target: HELZ (human, UniProt P42694 1-1942, limits assumed)
Procedure, shortened: as §1

[3] = molecular target: T2, AP4E1 (human, UniProt Q9UPM8 1-1137, limits assumed)
T2 sequence (looked up): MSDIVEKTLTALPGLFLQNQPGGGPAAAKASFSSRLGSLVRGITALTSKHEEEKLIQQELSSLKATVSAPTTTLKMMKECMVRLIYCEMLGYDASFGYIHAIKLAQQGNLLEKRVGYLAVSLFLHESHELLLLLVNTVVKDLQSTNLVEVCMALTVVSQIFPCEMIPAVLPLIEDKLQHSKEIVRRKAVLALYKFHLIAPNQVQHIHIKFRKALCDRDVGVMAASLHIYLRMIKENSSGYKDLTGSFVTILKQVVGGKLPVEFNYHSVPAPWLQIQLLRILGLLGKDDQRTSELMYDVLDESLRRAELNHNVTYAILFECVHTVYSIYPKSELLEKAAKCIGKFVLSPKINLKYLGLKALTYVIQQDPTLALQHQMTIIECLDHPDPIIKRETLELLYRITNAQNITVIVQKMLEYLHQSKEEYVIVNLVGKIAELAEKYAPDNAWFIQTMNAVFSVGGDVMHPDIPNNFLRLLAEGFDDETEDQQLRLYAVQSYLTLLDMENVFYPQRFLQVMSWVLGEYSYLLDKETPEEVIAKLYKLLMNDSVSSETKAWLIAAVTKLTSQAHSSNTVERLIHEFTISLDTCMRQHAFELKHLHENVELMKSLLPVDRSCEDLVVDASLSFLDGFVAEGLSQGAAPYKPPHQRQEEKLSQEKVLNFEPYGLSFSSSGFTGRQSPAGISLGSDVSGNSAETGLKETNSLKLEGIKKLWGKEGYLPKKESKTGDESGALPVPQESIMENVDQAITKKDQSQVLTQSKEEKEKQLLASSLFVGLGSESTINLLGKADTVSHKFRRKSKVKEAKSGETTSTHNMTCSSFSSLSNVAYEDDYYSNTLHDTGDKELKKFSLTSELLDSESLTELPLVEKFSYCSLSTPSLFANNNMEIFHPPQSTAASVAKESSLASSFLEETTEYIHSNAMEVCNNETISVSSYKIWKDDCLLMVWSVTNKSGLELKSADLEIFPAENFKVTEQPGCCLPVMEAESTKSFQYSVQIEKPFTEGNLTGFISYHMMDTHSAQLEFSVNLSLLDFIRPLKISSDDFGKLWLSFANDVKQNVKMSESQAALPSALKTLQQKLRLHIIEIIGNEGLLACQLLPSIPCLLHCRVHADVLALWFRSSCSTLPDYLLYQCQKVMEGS
Procedure, shortened: as §1

Measured: binding result

Sequence of HELZ (P42694 whole entry): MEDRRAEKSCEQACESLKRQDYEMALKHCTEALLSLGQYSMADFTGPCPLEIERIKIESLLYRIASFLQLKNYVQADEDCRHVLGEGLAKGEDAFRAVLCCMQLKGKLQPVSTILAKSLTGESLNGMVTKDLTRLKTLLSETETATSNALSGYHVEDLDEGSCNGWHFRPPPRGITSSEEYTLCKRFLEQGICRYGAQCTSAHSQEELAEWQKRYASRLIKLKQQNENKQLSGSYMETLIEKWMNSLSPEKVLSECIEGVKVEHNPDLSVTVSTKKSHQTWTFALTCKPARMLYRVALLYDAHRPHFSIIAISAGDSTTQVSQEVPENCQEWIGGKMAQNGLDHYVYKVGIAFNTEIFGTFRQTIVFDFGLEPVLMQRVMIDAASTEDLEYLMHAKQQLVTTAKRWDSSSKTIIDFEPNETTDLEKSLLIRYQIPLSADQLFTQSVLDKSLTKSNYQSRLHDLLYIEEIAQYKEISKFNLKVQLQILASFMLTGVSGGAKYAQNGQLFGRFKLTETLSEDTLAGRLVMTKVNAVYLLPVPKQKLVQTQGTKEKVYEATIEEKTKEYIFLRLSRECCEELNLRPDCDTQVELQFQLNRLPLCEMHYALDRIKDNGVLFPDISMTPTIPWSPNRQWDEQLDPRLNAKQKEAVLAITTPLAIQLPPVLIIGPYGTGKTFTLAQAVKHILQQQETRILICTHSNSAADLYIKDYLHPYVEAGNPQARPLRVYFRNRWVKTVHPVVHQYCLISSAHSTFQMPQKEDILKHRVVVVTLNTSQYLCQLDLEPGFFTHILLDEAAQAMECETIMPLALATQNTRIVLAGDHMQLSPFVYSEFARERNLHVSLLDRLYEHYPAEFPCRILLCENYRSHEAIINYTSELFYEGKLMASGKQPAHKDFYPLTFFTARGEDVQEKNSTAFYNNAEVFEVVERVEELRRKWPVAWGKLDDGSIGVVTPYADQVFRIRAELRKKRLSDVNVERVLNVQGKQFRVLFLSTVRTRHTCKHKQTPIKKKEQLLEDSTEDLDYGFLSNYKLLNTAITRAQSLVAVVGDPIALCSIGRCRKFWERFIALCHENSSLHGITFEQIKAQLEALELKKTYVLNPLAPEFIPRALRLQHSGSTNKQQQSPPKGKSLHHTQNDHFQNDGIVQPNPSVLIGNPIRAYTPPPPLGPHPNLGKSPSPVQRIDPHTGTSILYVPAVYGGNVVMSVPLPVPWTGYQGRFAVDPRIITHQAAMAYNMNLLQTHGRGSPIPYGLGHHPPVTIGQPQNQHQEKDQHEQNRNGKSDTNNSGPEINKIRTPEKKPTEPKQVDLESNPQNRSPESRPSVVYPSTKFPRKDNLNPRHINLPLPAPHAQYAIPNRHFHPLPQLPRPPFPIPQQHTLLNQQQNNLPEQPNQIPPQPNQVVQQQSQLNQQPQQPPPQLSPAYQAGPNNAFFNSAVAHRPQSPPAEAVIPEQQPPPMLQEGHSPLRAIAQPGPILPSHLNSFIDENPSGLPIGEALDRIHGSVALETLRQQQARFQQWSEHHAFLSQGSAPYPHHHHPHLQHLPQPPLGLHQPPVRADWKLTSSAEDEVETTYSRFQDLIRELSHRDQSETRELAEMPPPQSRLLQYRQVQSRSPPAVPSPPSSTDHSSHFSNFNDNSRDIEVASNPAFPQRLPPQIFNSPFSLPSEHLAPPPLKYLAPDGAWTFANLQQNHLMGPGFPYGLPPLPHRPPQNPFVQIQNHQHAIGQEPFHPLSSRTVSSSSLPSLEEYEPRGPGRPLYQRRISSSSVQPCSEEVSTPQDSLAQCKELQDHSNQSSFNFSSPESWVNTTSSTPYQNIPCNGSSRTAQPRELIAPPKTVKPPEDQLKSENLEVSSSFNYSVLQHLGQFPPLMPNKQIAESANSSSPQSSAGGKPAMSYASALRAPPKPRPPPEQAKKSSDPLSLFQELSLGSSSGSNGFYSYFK

B1: LZTR1 R810W-FLAG (other, human, UniProt Q8N653 1-840, looked up)
chain: MAGPGSTGGQIGAAALAGGARSKVAPSVDFDHSCSDSVEYLTLNFGPFETVHRWRRLPPCDEFVGARRSKHTVVAYKDAIYVFGGDNGKTMLNDLLRFDVKDCSWCRAFTTGTPPAPRYHHSAVVYGSSMFVFGGYTGDIYSNSNLKNKNDLFEYKFATGQWTEWKIEGRLPVARSAHGATVYSDKLWIFAGYDGNARLNDMWTIGLQDRELTCWEEVAQSGEIPPSCCNFPVAVCRDKMFVFSGQSGAKITNNLFQFEFKDKTWTRIPTEHLLRGSPPPPQRRYGHTMVAFDRHLYVFGGAADNTLPNELHCYDVDFQTWEVVQPSSDSEVGGAEVPERACASEEVPTLTYEERVGFKKSRDVFGLDFGTTSAKQPTQPASELPSGRLFHAAAVISDAMYIFGGTVDNNIRSGEMYRFQFSCYPKCTLHEDYGRLWESRQFCDVEFVLGEKEECVQGHVAIVTARSRWLRRKITQARERLAQKLEQEAAPVPREAPGVAAGGARPPLLHVAIREAEARPFEVLMQFLYTDKIKYPRKGHVEDVLLIMDVYKLALSFQLCRLEQLCRQYIEASVDLQNVLVVCESAARLQLSQLKEHCLNFVVKESHFNQVIMMKEFERLSSPLIVEIVRRKQQPPPRTPLDQPVDIGTSLIQDMKAYLEGAGAEFCDITLLLDGHPRPAHKAILAARSSYFEAMFRSFMPEDGQVNISIGEMVPSRQAFESMLRYIYYGEVNMPPEDSLYLFAAPYYYGFYNNRLQAYCKQNLEMNVTVQNVLQILEAADKTQALDMKRHCLHIIVHQFTKVSKLPTLWSLSQQLLLDIIDSLASHISDKQCAELGADI
notes: Stably expressed in U87 cells by lentivirus; also called LZTR1-FLAG-R810W; LZTR1 RW; not shown: FLAG tag
binds: all assays above
